Experimental data: publication PMC7844570

Biological target: L-lysine α-oxidase precursor from Trichoderma viride (Trichoderma viride)
Assay: crystal structure; prLysOX crystals by sitting-drop vapor diffusion at 20 °C, 0.1 M Tris-HCl pH 8.0-9.0, 2-2.1 M ammonium dihydrogen phosphate; space group C222(1); one molecule in the asymmetric unit, dimer formed by crystallographic two-fold symmetry; 1.97 Å

stoichiometry N: 2
Substance: L-lysine α-oxidase precursor from Trichoderma viride (enzyme)
